Measured values from article PMC3440374, “High Inorganic Triphosphatase Activities in Bacteria and Mammalian Cells: Identification of the Enzymes Involved” (PLoS ONE, 2012).

Tests used:
[1] = target: T1, CyaB (Aeromonas hydrophila, UniProt O69199); test: inorganic phosphate release, colorimetric; type: biochemical; settings: 0.5 mM substrate, 5 mM Mg2+ or Mn2+, pH 9.1, 50°C
T1 construct: full length from first Met, cloned in PVP16 as 8HIS-MBP fusion, tag removed by TEV digestion; produced in E. coli BL21DE3; nickel column
T1 sequence (O69199 1-191): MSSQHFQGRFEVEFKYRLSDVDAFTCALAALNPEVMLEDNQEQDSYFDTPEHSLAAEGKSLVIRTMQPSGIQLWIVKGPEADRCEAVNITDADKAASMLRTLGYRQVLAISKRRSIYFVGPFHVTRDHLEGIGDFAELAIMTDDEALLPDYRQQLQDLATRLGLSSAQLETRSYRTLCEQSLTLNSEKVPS

[2] = substrate: O=P(O)(O)OP(=O)(O)OP(=O)(O)O; test: inorganic phosphate release, colorimetric; type: biochemical, Escherichia coli; settings: 10 mM Mg2+, 50 mM CHES pH 9.1, 25°C
[3] = substrate: O=P(O)(O)OP(=O)(O)OP(=O)(O)O; test: inorganic phosphate release, colorimetric, Michaelis-Menten fit; type: biochemical, Escherichia coli; settings: 5 mM Mg2+, pH 8.5, 50°C

In the case of O=P(O)(O)OP(=O)(O)OP(=O)(O)O [PPPi], the “inorganic phosphate release, colorimetric” value [1] is reported as “it indeed hydrolyzes substrates such as ATP, ThTP and PPPi but at a low rate”.

For Cc1ncc(C[n+]2csc(CCOP(=O)(O)OP(=O)(O)OP(=O)(O)O)c2C)c(N)n1 [ThTP], the “inorganic phosphate release, colorimetric” value [1] was “it indeed hydrolyzes substrates such as ATP, ThTP and PPPi but at a low rate”.

B1: EcPPase (Escherichia coli K-12) (protein)
chain: SLLNVPAGKDLPEDIYVVIEIPANADPIKYEIDKESGALFVDRFMSTAMFYPCNYGYINHTLSLDGDPVDVLVPTPYPLQPGSVIRCRPVGVLKMTDEAGEDAKLVAVPHSKLSKEYDHIKDVNDLPELLKAQIAHFFEHYKDLEKGKWVKVEGWENAEAAKAEIVASFERAKNK
notes: commercial purified recombinant preparation (Sigma-Aldrich); 20 kDa per subunit
B1 showed a Km [2] of 910 ± 90 µM and a kcat [2] of 16.7 s⁻¹.

B2: GST-ygiF (Escherichia coli K-12) (protein)
chain: MAQEIELKFIVNHSAVEALRDHLNTLGGEHHDPVQLLNIYYETPDNWLRGHDMGLRIRGENGRYEMTMKVAGRVTGGLHQRPEYNVALSEPTLDLAQLPTEVWPNGELPADLASRVQPLFSTDFYREKWLVAVDGSQIEIALDQGEVKAGEFAEPICELELELLSGDTRAVLKLANQLVSQTGLRQGSLSKAARGYHLAQGNPAREIKPTTILHVAAKADVEQGLEAALELALAQWQYHEELWVRGNDAAKEQVLAAISLVRHTLMLFGGIVPRKASTHLRDLLTQCEATIASAVSAVTAVYSTETAMAKLALTEWLVSKAWQPFLDAKAQGKISDSFKRFADIHLSRHAAELKSVFCQPLGDRYRDQLPRLTRDIDSILLLAGYYDPVVAQAWLENWQGLHHAIATGQRIEIEHFRNEANNQEPFWLHSGKR
notes: produced in E. coli DH5alpha, GSTrap purified
Molecule B2 has a Km [3] of 270 ± 25 µM.
